Results reported in article PMC6981200.

Biological target: streptavidin-binding peptide-tagged constitutively active form of TAZ (SBP-TAZ4SA) (human) (UniProt Q9GZV5)
Chain of UniProt Q9GZV5 (Q9GZV5 whole entry): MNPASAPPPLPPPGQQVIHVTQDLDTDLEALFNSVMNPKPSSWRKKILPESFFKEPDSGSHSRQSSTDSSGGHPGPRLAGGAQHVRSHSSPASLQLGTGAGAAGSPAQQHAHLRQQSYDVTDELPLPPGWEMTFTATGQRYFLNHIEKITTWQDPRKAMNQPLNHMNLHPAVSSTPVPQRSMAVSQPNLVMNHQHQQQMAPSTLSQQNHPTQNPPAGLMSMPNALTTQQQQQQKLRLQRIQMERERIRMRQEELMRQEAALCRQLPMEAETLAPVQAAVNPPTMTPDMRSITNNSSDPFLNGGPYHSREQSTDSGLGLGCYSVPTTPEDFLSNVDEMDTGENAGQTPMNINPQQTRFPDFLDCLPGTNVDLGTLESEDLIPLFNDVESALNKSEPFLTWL

Ccl19 promoter-driven luciferase activity in HEK293T cells co-transfected with TAZ4SA and p52 (p52 alone: 7.5-fold): 13.5 fold
Substance: Flag-p52 (from UniProt Q9WTK5 1-454) (natural protein)
